The binders below were run against T1, CD3ε homodimer protein (human, UniProt P07766 23-126, limits assumed, sulfo-tag or biotin label in the ECL assays; amine-coupled to the chip in SPR) (assay: SPR Biacore T200; CD3ε homodimer on CM4 chip;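 note: Single-residue variant antibodies injected as analyte over CD3ε homodimer immobilized by amine coupling, run at 25 °C in HBS-EP+ buffer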).
T1 construct: also called human CD3ε homodimer protein; CD3 (CD3ε)
T1 sequence (P07766 23-126 limits assumed): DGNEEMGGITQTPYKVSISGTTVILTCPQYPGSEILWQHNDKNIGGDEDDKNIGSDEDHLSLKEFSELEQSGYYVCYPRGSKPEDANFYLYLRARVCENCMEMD

Binder	ratio of amounts bound Z=Y/X (altered form / CE115HA000)
CE115HA000 Y100D one-arm antibody (antibody, human IgG1, kappa, L234A L235A, N297A, name in Kabat numbering) heavy: QVQLVESGGGVVQPGRSLRLSCAASGFTFSNAWMHWVRQAPGKGLEWVAQIKAKSNNYATYYAESVKGRFTISRDDSKNSLYLQMNSLKTEDTAVYYCRYVHYGADYGVDAWGQGTTVTVSSASTKGPSVFPLAPSSKSTSGGTAALGCLVKDYFPEPVTVSWNSGALTSGVHTFPAVLQSSGLYSLSSVVTVPSSSLGTQTYICNVNHKPSNTKVDKKVEPKSCDKTHTCPPCPAPEAAGGPSVFLFPPKPKDTLMISRTPEVTCVVVDVSHEDPEVKFNWYVDGVEVHNAKTKPREEQYASTYRVVSVLTVLHQDWLNGKEYKCKVSNKALPAPIEKTISKAKGQPREPQVYTLPPSRCELTKNQVSLSCAVKGFYPSDIAVEWESNGQPENNYKTTPPVLDSDGSFFLVSKLTVDKSRWQQGNVFSCSVMHEALHNHYTQKSLSLSPDYKDDDDK EPKSSDKTHTCPPCPAPELLGGPSVFLFPPKPKDTLMISRTPEVTCVVVDVSHEDPEVKFNWYVDGVEVHNAKTKPREEQYNSTYRVVSVLTVLHQDWLNGKEYKCKVSNKALPAPIEKTISKAKGQPREPQVCTLPPSRDELTKNQVSLWCLVKGFYPSDIAVEWESNGQPENNYKTTPPVLDSDGSFFLYSKLTVDKSRWQQGNVFSCSVMHEALHNRYTQKSLSLSP light: DIVMTQSPLSLPVTPGEPASISCRSSQSLVHSNRNTYLHWYQQKPGQAPRLLIYKVSNRFSGVPDRFSGSGSGTDFTLKISRVEAEDVGVYYCGQGTQVPYTFGQGTKLEIKRTVAAPSVFIFPPSDEQLKSGTASVVCLLNNFYPREAKVQWKVDNALQSGNSQESVTEQDSKDSTYSLSSTLTLSKADYEKHKVYACEVTHQGLSSPVTKSFNRGEC	0.52
CE115HA000 Y100L one-arm antibody (antibody, human IgG1, kappa, L234A L235A, N297A, name in Kabat numbering) heavy: QVQLVESGGGVVQPGRSLRLSCAASGFTFSNAWMHWVRQAPGKGLEWVAQIKAKSNNYATYYAESVKGRFTISRDDSKNSLYLQMNSLKTEDTAVYYCRYVHYGALYGVDAWGQGTTVTVSSASTKGPSVFPLAPSSKSTSGGTAALGCLVKDYFPEPVTVSWNSGALTSGVHTFPAVLQSSGLYSLSSVVTVPSSSLGTQTYICNVNHKPSNTKVDKKVEPKSCDKTHTCPPCPAPEAAGGPSVFLFPPKPKDTLMISRTPEVTCVVVDVSHEDPEVKFNWYVDGVEVHNAKTKPREEQYASTYRVVSVLTVLHQDWLNGKEYKCKVSNKALPAPIEKTISKAKGQPREPQVYTLPPSRCELTKNQVSLSCAVKGFYPSDIAVEWESNGQPENNYKTTPPVLDSDGSFFLVSKLTVDKSRWQQGNVFSCSVMHEALHNHYTQKSLSLSPDYKDDDDK EPKSSDKTHTCPPCPAPELLGGPSVFLFPPKPKDTLMISRTPEVTCVVVDVSHEDPEVKFNWYVDGVEVHNAKTKPREEQYNSTYRVVSVLTVLHQDWLNGKEYKCKVSNKALPAPIEKTISKAKGQPREPQVCTLPPSRDELTKNQVSLWCLVKGFYPSDIAVEWESNGQPENNYKTTPPVLDSDGSFFLYSKLTVDKSRWQQGNVFSCSVMHEALHNRYTQKSLSLSP light: DIVMTQSPLSLPVTPGEPASISCRSSQSLVHSNRNTYLHWYQQKPGQAPRLLIYKVSNRFSGVPDRFSGSGSGTDFTLKISRVEAEDVGVYYCGQGTQVPYTFGQGTKLEIKRTVAAPSVFIFPPSDEQLKSGTASVVCLLNNFYPREAKVQWKVDNALQSGNSQESVTEQDSKDSTYSLSSTLTLSKADYEKHKVYACEVTHQGLSSPVTKSFNRGEC	0.7
CE115HA000 Y100P one-arm antibody (antibody, human IgG1, kappa, L234A L235A, N297A, name in Kabat numbering) heavy: QVQLVESGGGVVQPGRSLRLSCAASGFTFSNAWMHWVRQAPGKGLEWVAQIKAKSNNYATYYAESVKGRFTISRDDSKNSLYLQMNSLKTEDTAVYYCRYVHYGAPYGVDAWGQGTTVTVSSASTKGPSVFPLAPSSKSTSGGTAALGCLVKDYFPEPVTVSWNSGALTSGVHTFPAVLQSSGLYSLSSVVTVPSSSLGTQTYICNVNHKPSNTKVDKKVEPKSCDKTHTCPPCPAPEAAGGPSVFLFPPKPKDTLMISRTPEVTCVVVDVSHEDPEVKFNWYVDGVEVHNAKTKPREEQYASTYRVVSVLTVLHQDWLNGKEYKCKVSNKALPAPIEKTISKAKGQPREPQVYTLPPSRCELTKNQVSLSCAVKGFYPSDIAVEWESNGQPENNYKTTPPVLDSDGSFFLVSKLTVDKSRWQQGNVFSCSVMHEALHNHYTQKSLSLSPDYKDDDDK EPKSSDKTHTCPPCPAPELLGGPSVFLFPPKPKDTLMISRTPEVTCVVVDVSHEDPEVKFNWYVDGVEVHNAKTKPREEQYNSTYRVVSVLTVLHQDWLNGKEYKCKVSNKALPAPIEKTISKAKGQPREPQVCTLPPSRDELTKNQVSLWCLVKGFYPSDIAVEWESNGQPENNYKTTPPVLDSDGSFFLYSKLTVDKSRWQQGNVFSCSVMHEALHNRYTQKSLSLSP light: DIVMTQSPLSLPVTPGEPASISCRSSQSLVHSNRNTYLHWYQQKPGQAPRLLIYKVSNRFSGVPDRFSGSGSGTDFTLKISRVEAEDVGVYYCGQGTQVPYTFGQGTKLEIKRTVAAPSVFIFPPSDEQLKSGTASVVCLLNNFYPREAKVQWKVDNALQSGNSQESVTEQDSKDSTYSLSSTLTLSKADYEKHKVYACEVTHQGLSSPVTKSFNRGEC	0.48
CE115HA000 Y100K one-arm antibody (antibody, human IgG1, kappa, L234A L235A, N297A, name in Kabat numbering) heavy: QVQLVESGGGVVQPGRSLRLSCAASGFTFSNAWMHWVRQAPGKGLEWVAQIKAKSNNYATYYAESVKGRFTISRDDSKNSLYLQMNSLKTEDTAVYYCRYVHYGAKYGVDAWGQGTTVTVSSASTKGPSVFPLAPSSKSTSGGTAALGCLVKDYFPEPVTVSWNSGALTSGVHTFPAVLQSSGLYSLSSVVTVPSSSLGTQTYICNVNHKPSNTKVDKKVEPKSCDKTHTCPPCPAPEAAGGPSVFLFPPKPKDTLMISRTPEVTCVVVDVSHEDPEVKFNWYVDGVEVHNAKTKPREEQYASTYRVVSVLTVLHQDWLNGKEYKCKVSNKALPAPIEKTISKAKGQPREPQVYTLPPSRCELTKNQVSLSCAVKGFYPSDIAVEWESNGQPENNYKTTPPVLDSDGSFFLVSKLTVDKSRWQQGNVFSCSVMHEALHNHYTQKSLSLSPDYKDDDDK EPKSSDKTHTCPPCPAPELLGGPSVFLFPPKPKDTLMISRTPEVTCVVVDVSHEDPEVKFNWYVDGVEVHNAKTKPREEQYNSTYRVVSVLTVLHQDWLNGKEYKCKVSNKALPAPIEKTISKAKGQPREPQVCTLPPSRDELTKNQVSLWCLVKGFYPSDIAVEWESNGQPENNYKTTPPVLDSDGSFFLYSKLTVDKSRWQQGNVFSCSVMHEALHNRYTQKSLSLSP light: DIVMTQSPLSLPVTPGEPASISCRSSQSLVHSNRNTYLHWYQQKPGQAPRLLIYKVSNRFSGVPDRFSGSGSGTDFTLKISRVEAEDVGVYYCGQGTQVPYTFGQGTKLEIKRTVAAPSVFIFPPSDEQLKSGTASVVCLLNNFYPREAKVQWKVDNALQSGNSQESVTEQDSKDSTYSLSSTLTLSKADYEKHKVYACEVTHQGLSSPVTKSFNRGEC	1.07
CE115HA000 Y100G one-arm antibody (antibody, human IgG1, kappa, L234A L235A, N297A, name in Kabat numbering) heavy: QVQLVESGGGVVQPGRSLRLSCAASGFTFSNAWMHWVRQAPGKGLEWVAQIKAKSNNYATYYAESVKGRFTISRDDSKNSLYLQMNSLKTEDTAVYYCRYVHYGAGYGVDAWGQGTTVTVSSASTKGPSVFPLAPSSKSTSGGTAALGCLVKDYFPEPVTVSWNSGALTSGVHTFPAVLQSSGLYSLSSVVTVPSSSLGTQTYICNVNHKPSNTKVDKKVEPKSCDKTHTCPPCPAPEAAGGPSVFLFPPKPKDTLMISRTPEVTCVVVDVSHEDPEVKFNWYVDGVEVHNAKTKPREEQYASTYRVVSVLTVLHQDWLNGKEYKCKVSNKALPAPIEKTISKAKGQPREPQVYTLPPSRCELTKNQVSLSCAVKGFYPSDIAVEWESNGQPENNYKTTPPVLDSDGSFFLVSKLTVDKSRWQQGNVFSCSVMHEALHNHYTQKSLSLSPDYKDDDDK EPKSSDKTHTCPPCPAPELLGGPSVFLFPPKPKDTLMISRTPEVTCVVVDVSHEDPEVKFNWYVDGVEVHNAKTKPREEQYNSTYRVVSVLTVLHQDWLNGKEYKCKVSNKALPAPIEKTISKAKGQPREPQVCTLPPSRDELTKNQVSLWCLVKGFYPSDIAVEWESNGQPENNYKTTPPVLDSDGSFFLYSKLTVDKSRWQQGNVFSCSVMHEALHNRYTQKSLSLSP light: DIVMTQSPLSLPVTPGEPASISCRSSQSLVHSNRNTYLHWYQQKPGQAPRLLIYKVSNRFSGVPDRFSGSGSGTDFTLKISRVEAEDVGVYYCGQGTQVPYTFGQGTKLEIKRTVAAPSVFIFPPSDEQLKSGTASVVCLLNNFYPREAKVQWKVDNALQSGNSQESVTEQDSKDSTYSLSSTLTLSKADYEKHKVYACEVTHQGLSSPVTKSFNRGEC	1.07
CE115HA000 Y100Q one-arm antibody (antibody, human IgG1, kappa, L234A L235A, N297A, name in Kabat numbering) heavy: QVQLVESGGGVVQPGRSLRLSCAASGFTFSNAWMHWVRQAPGKGLEWVAQIKAKSNNYATYYAESVKGRFTISRDDSKNSLYLQMNSLKTEDTAVYYCRYVHYGAQYGVDAWGQGTTVTVSSASTKGPSVFPLAPSSKSTSGGTAALGCLVKDYFPEPVTVSWNSGALTSGVHTFPAVLQSSGLYSLSSVVTVPSSSLGTQTYICNVNHKPSNTKVDKKVEPKSCDKTHTCPPCPAPEAAGGPSVFLFPPKPKDTLMISRTPEVTCVVVDVSHEDPEVKFNWYVDGVEVHNAKTKPREEQYASTYRVVSVLTVLHQDWLNGKEYKCKVSNKALPAPIEKTISKAKGQPREPQVYTLPPSRCELTKNQVSLSCAVKGFYPSDIAVEWESNGQPENNYKTTPPVLDSDGSFFLVSKLTVDKSRWQQGNVFSCSVMHEALHNHYTQKSLSLSPDYKDDDDK EPKSSDKTHTCPPCPAPELLGGPSVFLFPPKPKDTLMISRTPEVTCVVVDVSHEDPEVKFNWYVDGVEVHNAKTKPREEQYNSTYRVVSVLTVLHQDWLNGKEYKCKVSNKALPAPIEKTISKAKGQPREPQVCTLPPSRDELTKNQVSLWCLVKGFYPSDIAVEWESNGQPENNYKTTPPVLDSDGSFFLYSKLTVDKSRWQQGNVFSCSVMHEALHNRYTQKSLSLSP light: DIVMTQSPLSLPVTPGEPASISCRSSQSLVHSNRNTYLHWYQQKPGQAPRLLIYKVSNRFSGVPDRFSGSGSGTDFTLKISRVEAEDVGVYYCGQGTQVPYTFGQGTKLEIKRTVAAPSVFIFPPSDEQLKSGTASVVCLLNNFYPREAKVQWKVDNALQSGNSQESVTEQDSKDSTYSLSSTLTLSKADYEKHKVYACEVTHQGLSSPVTKSFNRGEC	0.8

Reference: patent US20260049138A1 (Chugai, published 2026)
